Experimental data as given in patent US20260055441A1, “A PCR-ELISA ANALOGOUS ANTIBODY-FREE METHOD FOR DETECTING A TARGET NUCLEIC ACID IN A SAMPLE” (UNIVERSITÄT HEIDELBERG, priority 2022, published 2026).
Several values for one entry are separate records, joined by “and”; a condition that tells them apart may be missing. Equal values may be shown once. No end group written: not given here.

Assays:
latent papain P13 [1] = target: T1, latent papain P13 (Carica papaya, UniProt P00784); assay: Latent papain reactivation assay with thiol activators at 10 μM, rates normalized to 10 μM cysteine (FIG. 18); assay type: biochemical; settings: activator 10 μM, latent papain 1 nM, Z-Phe-Arg-AMC 2 μM; for reaction rate compared to L-cysteine: pH 7; for normalized ratio rate/rate 10 μM cysteine of substrate hydrolysis after reactivation of latent papain: well buffer pH 7, no TCEP
T1 construct: purchased Sigma Aldrich (Munich, Germany); host or cells: Papaya latex (natural source)
T1 sequence (P00784 134-345): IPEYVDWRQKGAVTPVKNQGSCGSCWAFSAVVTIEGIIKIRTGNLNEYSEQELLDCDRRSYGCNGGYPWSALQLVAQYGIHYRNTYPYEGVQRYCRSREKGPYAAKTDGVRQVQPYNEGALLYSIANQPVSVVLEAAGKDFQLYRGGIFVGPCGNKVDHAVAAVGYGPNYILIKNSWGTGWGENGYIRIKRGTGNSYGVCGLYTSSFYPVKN
Procedure: All following described fluorometric assays (Examples 1-3) are based on the reaction of reversibly inactivated papain (latent papain) with an activator containing either sulfur or selenium (with the exception of TCEP). Different latent papain forms, buffer compositions and activators in various concentrations were compared. Papain was hereby transferred in buffer (standard well buffer consisted of 0.1 M phosphate pH 7, 4 mM EDTA, 0.01% Brij35 and if activators contained diselenides, 1 μM TCEP) mixed with activator and substrate inside 96 well plates (without prior washing of the plates). After reactivation, active papain hydrolyses the substrate Z-Phe-Arg-AMC (2 μM) and the resulting fluorescence was tracked every minute for 2 h. The slopes of the corresponding curves were calculated for the linear portion within the first 30 minutes and the resulting reaction rates were directly compared. Resulting reaction rates directly reflect reactivation efficiencies of each activator under each reaction condition. […] After addition of activator a fraction of latent papain is immediately reactivated in rather non-stoichiometric proportions. Complete reactivation can generally only be achieved with great excess of activator. The partial reactivation with smaller activator amounts appears almost instantaneously because the resulting reaction curve show linear progression from the start except for very low activator concentrations. After reactivation, all different latent papain forms result in the same active enzyme. If different latent papain forms show different reaction rates in identical activation assays, the efficiency of reactivation with the applied activator can be deduced. The same applies for reactivation of one latent papain form with different activators or reaction conditions.
Several thiol compounds and cysteine containing peptide activators (see Example 4.1) were compared for their potential to reactivate latent papain. To this end, the thiol compounds and cysteine containing peptide activators were utilized in reactivation assays (see Example 5, 5.2.2.2, fluorometric method 2) of papain P13 (see Example 1, 1.2) with an activator concentration of 10 μM. For thiols not completely soluble in phosphate buffer pH 7 at high concentrations, the 1 mM stock solution was prepared in DMSO, resulting in 1% DMSO in the reaction mixture. In order to normalize the observed reaction rates between assays, a 10 μM cysteine sample was additionally measured in every assay and reaction rates of the examined thiols were divided through the reaction rates produced by the 10 μM cysteine standard. Additionally, a measurement with 1 mM cysteine was performed in order to achieve maximal papain activation and therefore the maximal reaction rate within the confines of the assay. The resulting normalized rates are compared in FIG. 18.
Different assays of reactivating latent papain in solution were conducted in the course of this work. Various buffer compositions, supplements, 96 well plates, substrates, activators, concentrations as well as different latent papain forms were compared. In order to get an overview of all experiments, a standard method is described in the following and variations of this method are subsequently defined. First, the well buffer was prepared (0.1 M phosphate buffer pH 7, 4 mM EDTA, 0.01% Brij35). A 1 mM TCEP solution was prepared with 3 mM NaOH in 0.1 M Tris-HCl buffer pH 8. Papain substrate (Z-Phe-Arg-AMC or Suc-Leu-Leu-Val-Tyr-AMC) was prepared as a 200 μM solution in water and transferred equally to a PCR strip. Three serial dilutions of the activating agent with well buffer were used in the different experiments and the corresponding pipetting schemes are shown in Table 9. Papain was diluted to 0.1 μM with well buffer and transferred equally to a PCR strip. After preparation of the abovementioned solutions, TCEP (1 mM solution) was added to well buffer to yield a final TCEP concentration of 1.1 μM. […]

latent papain P13 [2] = target: T1, latent papain P13; assay: Screening of peptide-based papain activators, rates normalized to cysteine ethyl ester (FIG. 19, FIG. 20); assay type: biochemical; settings: for normalized ratio rate/rate cysteine ethyl ester (CysEE): activator 50 nM, latent papain P13 1 nM, substrate 2 μM, pH 7
Procedure: L-Cysteine ethyl ester was utilized in identical peptide concentrations as a standard in order to calculate normalized reaction rates for each synthesized peptide.
[…] The assays were conducted in well buffer with 1 nM latent papain P13. In order to give a clear overview, only the normalized rates for activator concentrations of 50 nM are depicted and compared.
Additionally, 1 μM TCEP was added to each well of the cysteine concentration series in order to examine the influence of TCEP on reaction rates of thiols.
Different assays of reactivating latent papain in solution were conducted in the course of this work. Various buffer compositions, supplements, 96 well plates, substrates, activators, concentrations as well as different latent papain forms were compared. In order to get an overview of all experiments, a standard method is described in the following and variations of this method are subsequently defined. First, the well buffer was prepared (0.1 M phosphate buffer pH 7, 4 mM EDTA, 0.01% Brij35). A 1 mM TCEP solution was prepared with 3 mM NaOH in 0.1 M Tris-HCl buffer pH 8. Papain substrate (Z-Phe-Arg-AMC or Suc-Leu-Leu-Val-Tyr-AMC) was prepared as a 200 μM solution in water and transferred equally to a PCR strip. Three serial dilutions of the activating agent with well buffer were used in the different experiments and the corresponding pipetting schemes are shown in Table 9. Papain was diluted to 0.1 μM with well buffer and transferred equally to a PCR strip. […] 342.4 μL of TCEP containing well buffer was transferred to each well, followed by 3.8 μL papain solution. After mixing, 30 μL of the prepared activator concentrations (see Table 9) were added and mixed. In the last step, 3.8 μL of the substrate solution was added and mixed, to yield a final well composition of 0.1 M phosphate buffer pH 7, 1 nM papain, 2 μM substrate, activator (see Table 9), 4 mM EDTA, 0.01% Brij35 and 1 μM TCEP. For experiments with only one activator concentration of 10 μM, the transferred well buffer for each well was 368.6 μL, followed by 3.8 μL of papain, substrate and activator (1 mM in well buffer) respectively.

[3] = target: T2, latent papain, reversibly inactivated with S-methyl methanethiosulfonate (-S-S-CH3) (Carica papaya, UniProt P00784 134-345, catalytic Cys25 blocked as mixed disulfide -S-S-CH3); assay: cell-based or functional assay
T2 sequence: T1 sequence (P00784 134-345)

[4] = target: T3, dU-triazole-PEG3-ULR dimer (21) (not fully specified)
T3 chain: ULR

[5] = FIG. 20, concentration series 50 nM-10 μM

OCCS [2-ME, 2-Mercaptoethan-1-ol]
reaction rate compared to L-cysteine (latent papain P13 [1]): 70%

CC(=O)Nc1ccc(S)cc1 [4-acetamidothiophenol, 4-Acetamidothiophenol]
activator efficiency, in words (latent papain P13 [2]; [5]): more potent activators compared to the tripeptide | rate relative to the tripeptide H2N-CLR-CONH2 (latent papain P13 [2]; concentration series 50 nM-10 μM (FIG. 20), selenocysteine prepared with TCEP): five times as efficient

SCc1ccc(Cl)cc1 [4-chlorobenzyl mercaptan, 4-Chlorobenzyl mercaptan]
normalized ratio rate/rate 10 μM cysteine of substrate hydrolysis after reactivation of latent papain (latent papain P13 [1]): 0.83

Nc1nnc(S)s1 [5-Amino-1,3,4-thiadiazole-2-thiol]
normalized ratio rate/rate 10 μM cysteine of substrate hydrolysis after reactivation of latent papain (latent papain P13 [1]): almost no papain activation potential at all

N[C@H](CS)C(=O)O [D-cysteine]
reaction rate compared to L-cysteine (latent papain P13 [1]): 70%

N[C@@H](CCS)C(=O)O [L-homocysteine, L-Homocysteine]
normalized ratio rate/rate 10 μM cysteine of substrate hydrolysis after reactivation of latent papain (latent papain P13 [1]): lower reaction rates

CC(C)(S)[C@H](N)C(=O)O [L-penicillamine, L-Penicillamine]
normalized ratio rate/rate 10 μM cysteine of substrate hydrolysis after reactivation of latent papain (latent papain P13 [1]): lower reaction rates

O=C(O)CCP(CCC(=O)O)CCC(=O)O [TCEP, Tris(2-carboxyethyl)phosphine]
activator efficiency, in words (latent papain P13 [2]; [5]): very little efficiency

Sc1ccccc1 [thiophenol, Thiophenol]
normalized ratio rate/rate 10 μM cysteine of substrate hydrolysis after reactivation of latent papain (latent papain P13 [1]): 4.86

H2N-C-C-R-G-CONH2 (H-CCRG-NH2; cysteine pairing not given here) [H2N—CCRG-CONH2]
normalized ratio rate/rate cysteine ethyl ester (CysEE) (latent papain P13 [2]): most potent activators

H2N-C-F-R-CONH2 (H-Cys-Phe-Arg-NH2) [H2N—CFR—CONH2]
normalized ratio rate/rate 10 μM cysteine of substrate hydrolysis after reactivation of latent papain (latent papain P13 [1]): more than twice as high

H2N-C-L-C-G-CONH2 (H-CLCG-NH2; cysteine pairing not given here) [H2N—CLCG-CONH2]
normalized ratio rate/rate cysteine ethyl ester (CysEE) (latent papain P13 [2]): most potent activators

H2N-C-L-R-CONH2 (H-Cys-Leu-Arg-NH2) [H2N—CLR—CONH2]
potency relative to (L-)cysteine (latent papain P13 [2]; [5]): almost four times as efficient | normalized ratio rate/rate cysteine ethyl ester (CysEE) (latent papain P13 [2]): 1.8 and 1.81 | normalized ratio rate/rate 10 μM cysteine of substrate hydrolysis after reactivation of latent papain (latent papain P13 [1]): more than twice as high

H2N-C-L-R-G-CONH2 (H-CLRG-NH2) [H2N—CLRG-CONH2]
normalized ratio rate/rate cysteine ethyl ester (CysEE) (latent papain P13 [2]): 1.29

H2N-C-L-R-G-COOH (H-CLRG-OH) [H2N—CLRG-COOH]
normalized ratio rate/rate cysteine ethyl ester (CysEE) (latent papain P13 [2]): 0.51

H-GGCGGG-OH [H2N-G-G-C-G-G-G-COOH]
normalized ratio rate/rate cysteine ethyl ester after reactivation of latent papain P13 (1 nM), activator 50 nM [3]: < 1 rate/rate cysteine ethyl ester

H-Cys-Leu-Arg-NH2 [H2N-CLR-CONH2]
normalized ratio rate/rate cysteine ethyl ester after reactivation of latent papain P13 (1 nM), activator 50 nM [3]: 1.81 rate/rate cysteine ethyl ester | reaction rate after reactivation of latent papain P13 (1 nM), concentration series 50 nM-10 uM, against free cysteine [3]: ~4 fold of free cysteine

H-SECLRG-OH [H2N-S-E-C-L-R-G-COOH]
normalized ratio rate/rate cysteine ethyl ester after reactivation of latent papain P13 (1 nM), activator 50 nM [3]: < 1 rate/rate cysteine ethyl ester

H-FVCEKG-OH [H2N-F-V-C-E-K-G-COOH]
normalized ratio rate/rate cysteine ethyl ester after reactivation of latent papain P13 (1 nM), activator 50 nM [3]: < 1 rate/rate cysteine ethyl ester

B1: latent papain P23 (-S-S-(CH2)2-NH2) (protein)
chain: T1 sequence (P00784 134-345)
reaction rate of Z-Phe-Arg-AMC hydrolysis after reactivation of latent papain (1 nM) with activator 1-15 nM [4]: papain P23, containing the positively charged amino group, was found to be by far the most efficiently reactivated latent papain form

H-GKCLRG-OH [H2N-G-K-C-L-R-G-COOH]
normalized ratio rate/rate cysteine ethyl ester after reactivation of latent papain P13 (1 nM), activator 50 nM [3]: < 1 rate/rate cysteine ethyl ester

H-CLRCG-OH (cysteine pairing not given here) [H2N-CLRCG-COOH]
normalized ratio rate/rate cysteine ethyl ester after reactivation of latent papain P13 (1 nM), activator 50 nM [3]: 0.99 rate/rate cysteine ethyl ester

B2: dU-triazole-PEG3-ULR dimer (21) (peptide)
peptide: X-Leu-Arg-NH2
modifications: not fully specified (residue 1, N-terminus); printed as dU-triazole-PEG3-ULR; also: diselenide dimer
normalized ratio rate/rate blank, P20 against P28 [3]: 2 fold of the normalized rate of P28 | normalized ratio rate/rate blank, activator at half equimolar concentration of papain (printed 500 µM; papain 1 nM) [3]: 33 fold of the background activity | normalized ratio rate/rate blank, activator at the lowest concentration (printed 50 µM; series starts at 50 pM) [3]: 4 fold of the background activity | reaction rate after reactivation of latent papain (1 nM), activator 10 nM, against DTBA (9) [3]: 23 fold of the rate with DTBA (9) | reaction rate after reactivation of latent papain (1 nM), activator 10 nM, against DTT [3]: 159 fold of the rate with DTT | reaction rate after reactivation of latent papain (1 nM), activator 50 nM, against DTBA (9) [3]: 9 fold of the rate with DTBA (9) | reaction rate after reactivation of latent papain (1 nM), activator 50 nM, against DTT [3]: 128 fold of the rate with DTT

H-GLCLRG-OH (not fully specified) [H2N-G-L-C-L-R-G-COOH]
normalized ratio rate/rate cysteine ethyl ester after reactivation of latent papain P13 (1 nM), activator 50 nM [3]: < 1 rate/rate cysteine ethyl ester

H-CLRG-OH [H2N-CLRG-COOH]
normalized ratio rate/rate cysteine ethyl ester after reactivation of latent papain P13 (1 nM), activator 50 nM [3]: 0.51 rate/rate cysteine ethyl ester

H-EGCGRG-OH [H2N-E-G-C-G-R-G-COOH]
normalized ratio rate/rate cysteine ethyl ester after reactivation of latent papain P13 (1 nM), activator 50 nM [3]: < 1 rate/rate cysteine ethyl ester

H-CLRG-NH2 [H2N-CLRG-CONH2]
normalized ratio rate/rate cysteine ethyl ester after reactivation of latent papain P13 (1 nM), activator 50 nM [3]: 1.29 rate/rate cysteine ethyl ester
